From patent US7790697B2, “Compositions and methods for inhibiting the synthesis or expression of MMP-1” (Trustees of Dartmouth College, priority 2004, dated 2010)

How the values were obtained:
[1] = tested on: MDA-231 cells in type I collagen gel; assay: In vitro collagen gel destruction assay; type: cell-based; conditions: MDA-231 cells producing the shRNA
Procedure: In vitro Collagen Gel Destruction Assay. Collagen preparations were carried out on ice to prevent premature jelling. A solution of purified type I bovine collagen (Cohesion Technologies, Palo Alto, Calif.) was neutralized with a sterile 10× phosphate-buffered saline (pH 7.4), and 0.1 M NaOH. The solution of neutralized collagen (2 mg/mL) was mixed with an equivalent volume of cells suspended in serum free DMEM to yield a final concentration of 2×10^5 cells/mL in 1 mg/mL fibrillar collagen, and 1 mL of the collagen/cell mixture was added to each well of a six-well plate. After approximately 1 hour, the collagen jelled, and 1 mL of serum-free media was added on top of the gel. For some experiments, 25 μM ILOMASTAT® (CHEMICON®, Temecula, Calif.), 50 U/mL aprotinin (Sigma, St. Louis, Mo.), 1 μg/mL neutralizing MMP-1 antibody (MMP-1 ab-5; ONCOGENE™ Research Products, San Diego, Calif.), 1 μg/mL monoclonal FLAG® antibody (Sigma, St. Louis, Mo.), or 1% DMSO were added to the collagen before it jelled. After 36 hours of incubation at 37° C. the medium was removed from the top of collagen gels and weighed. The weight of media added at the start of the 37° C. incubation (1 gram) was subtracted from the total media weights to reveal the amount of media liberated by collagen gel destruction.
An in vitro collagen destruction assay was developed to determine whether the MMP-1 levels in MDA-231 cells with the empty vector were functionally capable of degrading a collagen matrix, and whether the shRNA-mediated reduction in MMP-1 was sufficient to change the invasive behavior of the cells. MDA-231 cells harboring either the empty vector or the MMP-1 shRNA were embedded in a solution of type I collagen (1 mL). The collagen was allowed to solidify at 37° C., and 1 mL of serum-free medium was layered on top of each gel. After 36 hours at 37° C., the medium was removed from each well and photographs were taken. No collagen was visible in wells containing MDA-231 cells with the empty vector. […] The medium removed from each well was weighed to quantitate the amount of medium liberated as the gel was destroyed. After 36 hours, approximately 1 mL (0.8±0.06 grams) of medium was liberated from the collagen gels containing the MDA-231 cells with the empty vector. […] Conversely, no medium (−0.01±0.03 grams) was liberated from collagen gels containing MDA-231 cells producing the MMP-1 shRNA. The slight decrease in the volume of medium recovered may be due to evaporation of the medium during the incubation period.

MMP-1 protein = assay: Western blot of MMP-1 protein in culture medium; type: cell-based, human; conditions: MDA-231 cells producing the shRNA; 24 hours
Procedure: Western Blot Analysis. MDA-231 cells were cultured in 1 mL serum-free DMEM/F12 medium in six-well plates in the presence or absence of a collagen gel, with or without aprotinin (50 U/mL; Sigma, St. Louis, Mo.). After 24 hours, medium was harvested, proteins precipitated with cold 10% trichloroacetic acid, and resuspended in 50 μL SDS loading buffer (PROMEGA®, Madison, Wis.). Following SDS-PAGE and transfer to a PVDF membrane (IMMOBILON™-P; MILLIPORE™, Bedford, Mass.), the membrane was incubated in a 5% milk, Tris-buffered saline solution with 0.1% TWEEN™ (milk TBST) for 1 hour. The membrane was probed with a MMP-1 polyclonal antibody (CHEMICON®, Temecula, Calif.) diluted 1:5000 in milk TBST overnight at 4° C. The membrane was washed three times with TBST, and a 1:2000 dilution of goat anti-rabbit horseradish peroxidase (HRP) conjugated antibody (CELL SIGNALING TECHNOLOGY®, Beverly, Mass.) in milk TBST was added for 60 minutes. The blot was washed three times with TBST, and HRP activity was detected with the WESTERN LIGHTNING® chemiluminescence reagent according to the manufacturer's instructions (PERKINELMER®, Boston, Mass.).
The three MMPs primarily responsible for degrading type 1 collagen are MMP-1, MMP-13, and the membrane bound MT1-MMP (Stamenkovic (2003) J. Pathol. 200:448-64). […]

MDA-231 cells = assay: Tumorigenesis studies in nude mice, mammary fat pad injection of MDA-231 cells; type: in vivo
Procedure: Tumorigenesis Studies in Mice. Pooled MDA-231 stable cell lines containing either the empty vector or the MMP-1 shRNA (1×10^6 cells/100 μL HBSS) were injected into the 4th inguinal fat pad of twenty-one female, 6-week-old nude mice (NU/NU; Charles River Laboratories, Wilmington, Mass.) using 28 gauge×½″ single-use insulin needles. Mice were examined weekly until tumors were grossly apparent, then they were examined several times per week. Each tumor was measured twice with Vernier calipers, and tumor volume was calculated using the formula: 4/3πr^3. When the two measurements differed, the smaller radius measurement was squared and multiplied by the largest radius measurement. This number was then substituted for the r^3 portion of the formula.
The in vivo efficacy of the shRNA-mediated reduction of MMP-1 in the MDA-231 cells was analyzed. Nude mice were injected in the fourth inguinal mammary fat pad with MDA-231 cells containing either the empty vector or the MMP-1 shRNA. At week 6, tumors began to appear in the inguinal pad of several mice and at week 11, the mice were sacrificed.

B1: MMP-1 shRNA: Vector-expressed small hairpin RNA, SEQ ID NO:1 (sense) and SEQ ID NO:2 (antisense), specific to bases 234-252 of MMP-1 mRNA (nucleic acid)
sense: GATCCCCACCAGATGCTGAAACCCTGTTCAAGAGACAGGGTTTCAGCATCTGGTTTTTTGGAAA
antisense: AGCTTTTCCAAAAAACCAGATGCTGAAACCCTGTCTCTTGAACAGGGTTTCAGCATCTGGTGGG
modifications: the letters are possibly those of the target site
appearance of collagen gel ([1]; 36 hours): appeared to be intact | medium liberated from collagen gels ([1]; 36 hours at 37° C.): −0.01±0.03 grams | collagen gel destruction ([1]; as long as five days): no collagen gel destruction | MMP-1 protein in medium (western blot) (MMP-1 protein): No detectable MMP-1 protein | average tumor size at time of sacrifice (MDA-231 cells; week 11, mean±s.e., n=10, p=0.027 vs empty vector): 272±117 mm^3 | frequency of tumor formation (MDA-231 cells; week 11, n=23, p=0.11 vs empty vector (57%), Fisher's exact test): 36%
